What was measured:
[1] = test system: I-F1 PA14 Csy complex with Cas2/3 (Pseudomonas aeruginosa PA14); assay: cell_activity; details: CC PAM; interference assay, completely depleted
[2] = test system: Tn6900 Cascade-TniQ wild type (with TnsABC) (Aeromonas salmonicida S44); assay: cell_activity; details: CC PAM in transposition screen; about 3-fold
[3] = test system: Tn6900 Cascade-TniQ, Cas8/5 A247Q+S248N Cas8/5 A247Q,S248N (Aeromonas salmonicida S44); assay: cell_activity; details: over half of transposition events at PAMs with -1 C
Sequence of Tn6900 Cascade-TniQ, Cas8/5 A247Q+S248N Cas8/5 A247Q,S248N (Aeromonas salmonicida S44) (chain, as listed by the source A247Q S248N A247Q S248N, chain 2 of 2): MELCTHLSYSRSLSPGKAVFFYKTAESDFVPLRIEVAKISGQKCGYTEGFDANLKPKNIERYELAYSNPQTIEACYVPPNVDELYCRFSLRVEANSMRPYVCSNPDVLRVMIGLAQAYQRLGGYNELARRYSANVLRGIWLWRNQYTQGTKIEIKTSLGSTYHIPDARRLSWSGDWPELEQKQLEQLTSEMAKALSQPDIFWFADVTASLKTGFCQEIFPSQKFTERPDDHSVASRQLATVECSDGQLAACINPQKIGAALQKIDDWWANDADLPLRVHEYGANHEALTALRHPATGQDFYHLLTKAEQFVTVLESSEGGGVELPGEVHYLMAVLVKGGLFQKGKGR
Sequence of Tn6900 Cascade-TniQ, Cas8/5 A247Q+S248N Cas8/5 A247Q,S248N (Aeromonas salmonicida S44) (chain, as listed by the source A247Q S248N A247Q S248N, chain 3 of 2): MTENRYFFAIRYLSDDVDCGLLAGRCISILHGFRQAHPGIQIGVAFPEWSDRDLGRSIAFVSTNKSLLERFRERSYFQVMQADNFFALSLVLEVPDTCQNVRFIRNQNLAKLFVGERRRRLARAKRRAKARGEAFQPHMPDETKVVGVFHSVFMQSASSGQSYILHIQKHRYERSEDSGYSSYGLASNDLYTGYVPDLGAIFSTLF

[4] = biological target: the molecule itself; assay: cryo-EM structure of the Cascade-TniQ full R-loop complex
[5] = biological target: T1, Cas8/5 protein of the I-F3b Tn6900 Cascade (Aeromonas salmonicida S44 (Tn6900 …)); assay: as above
T1 chain: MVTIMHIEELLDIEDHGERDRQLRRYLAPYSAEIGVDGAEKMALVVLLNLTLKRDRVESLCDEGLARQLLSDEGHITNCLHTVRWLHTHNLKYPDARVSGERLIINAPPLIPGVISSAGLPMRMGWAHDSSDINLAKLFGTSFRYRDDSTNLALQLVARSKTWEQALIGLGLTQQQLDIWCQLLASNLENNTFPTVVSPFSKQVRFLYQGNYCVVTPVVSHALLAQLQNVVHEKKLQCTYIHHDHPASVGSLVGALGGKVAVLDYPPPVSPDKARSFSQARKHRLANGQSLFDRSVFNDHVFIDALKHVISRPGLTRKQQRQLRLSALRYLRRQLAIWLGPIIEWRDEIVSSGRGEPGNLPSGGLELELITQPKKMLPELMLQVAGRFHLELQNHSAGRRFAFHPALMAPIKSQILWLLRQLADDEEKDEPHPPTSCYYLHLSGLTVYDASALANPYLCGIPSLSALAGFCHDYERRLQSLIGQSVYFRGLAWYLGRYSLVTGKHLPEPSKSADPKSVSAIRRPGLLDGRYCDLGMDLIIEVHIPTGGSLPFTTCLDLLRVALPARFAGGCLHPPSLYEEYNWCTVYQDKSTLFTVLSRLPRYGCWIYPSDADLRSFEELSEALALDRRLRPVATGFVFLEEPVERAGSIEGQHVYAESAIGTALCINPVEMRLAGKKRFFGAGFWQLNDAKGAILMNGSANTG

Sequence of Tn6900 Cascade-TniQ wild type (with TnsABC) (Aeromonas salmonicida S44) (chain, as listed by the source, chain 2 of 2): as the sequence (chain, as listed by the source A247Q S248N A247Q S248N, chain 2 of 2) above
Sequence of Tn6900 Cascade-TniQ wild type (with TnsABC) (Aeromonas salmonicida S44) (chain, as listed by the source, chain 3 of 2): as the sequence (chain, as listed by the source A247Q S248N A247Q S248N, chain 3 of 2) above

In the case of PA14 crRNA-ffs ; CC-PAM ffs target, the enrichment after interference (depletion) (enrichment (depletion)) [1] is reported as < 0.005.

Molecule “atypical crRNA ffs (60 nt) ; CC-PAM ffs target” has a binding signal (fold enrichment) [2] of 3.

For “atypical crRNA ffs (60 nt) ; NN-PAM ffs plasmid pool”, the share of transposition events at PAMs with -1 C (% of events with C at -1) [3] was > 50.

B1: TniQ subunit (monomer) of the TniQ homo-dimer (other)
chain: MHLLVRPEPFADEALESYFLRLSQENGFERYRIFSGSVQDWLHTTDHAAAGAFPLELSRLNIFHASRSSGLRVRALQLVDRLTDGAPFRLLQLALCHSAISFGNHYKAVHRSGVDIPLSFIRVHQIPCCPDCLRESAYVRQCWHFKPYVGCHRHGGRLIYSCPACGESLNYLASESINHCQCGFDLRTASTVPAQPDEIQLSALAYGCSFESSNPLLAIGSLSARFGALYWYQQRYLSDHEAVRDDRALTKAIGHFTAWPDAFWRELQQMVDDALVRQTKPLNHTDFVDVFGSVVADCRQIPMRNTGQNFILKNLIGFLTDLVARHPQCRVANVGDLLLSAVDAATLLSTSVEQVRRLHHEGFLPLSIRPASRNTVSPHRAVFHLRHVVELRQARMQSHHDHSSTYLPAW
notes: One chain of the dimer, entered to record the self-association of TniQ; also called TniQ.1; TniQ.2; not shown: His6 tag named only in the plasmid name (pCOLADuet-1-His6-tniQ)
B1: binds [4].

B2: TniQ transposition protein of the I-F3b element Tn6900 (Aeromonas salmonicida S44), homo-dimer as associated with Cascade (other)
chain: MHLLVRPEPFADEALESYFLRLSQENGFERYRIFSGSVQDWLHTTDHAAAGAFPLELSRLNIFHASRSSGLRVRALQLVDRLTDGAPFRLLQLALCHSAISFGNHYKAVHRSGVDIPLSFIRVHQIPCCPDCLRESAYVRQCWHFKPYVGCHRHGGRLIYSCPACGESLNYLASESINHCQCGFDLRTASTVPAQPDEIQLSALAYGCSFESSNPLLAIGSLSARFGALYWYQQRYLSDHEAVRDDRALTKAIGHFTAWPDAFWRELQQMVDDALVRQTKPLNHTDFVDVFGSVVADCRQIPMRNTGQNFILKNLIGFLTDLVARHPQCRVANVGDLLLSAVDAATLLSTSVEQVRRLHHEGFLPLSIRPASRNTVSPHRAVFHLRHVVELRQARMQSHHDHSSTYLPAW
notes: Expressed in E. coli together with Cascade and purified as the Cascade-TniQ complex over Ni-NTA through the His6 tag on TniQ; also called His6-TniQ; TniQ dimer; not shown: His6 tag named only in the plasmid name (pCOLADuet-1-His6-tniQ)
B2: binds [5].
